In US20230406942A1 (HORIZON THERAPEUTICS IRELAND DAC, published 2023):

How the values were obtained:
IGF-1R on NCI-H322 cells [1] = target: T1, IGF-1R on NCI-H322 cells (UniProt P08069 31-1367, limits assumed); assay: cell-based or functional assay
IGF-1R on NCI-H322 cells [2] = target: T1, IGF-1R on NCI-H322 cells; assay: cell-based or functional assay; remark: listed apart in the source
[3] = target: T2, IGF-1R (coated on Maxisorp plates) (UniProt P08069 31-932, limits assumed); assay: competition ELISA, plate-coated IGF-1R, antibody titrated against 20 ng/mL IGF-1 biotin
T2 construct: also called the receptor
Experimental: (§1) Maxisorp plates were coated with 1.5 ug/mL of IGF-1R overnight at 4° C. Plates were washed and blocked with 1% BSA. Subsequently, serially diluted anti-IGF1R antibodies were incubated for 30 min at room temperature followed by an incubation with a final concentration of 20 ng/mL IGF-1 biotin. Plates were washed and streptavidin-horseradish peroxidase was added. After a final wash, 3,3′,5,5′-Tetramethylbenzidine was added for 8 minutes. The reaction was terminated with a HCL based stop solution. Plates were measured for absorbance at 450 nm, and the data was analyzed using Softmax Pro 7.1 software.

[4] = target: T2, IGF-1R (coated on Maxisorp plates); assay: competition ELISA, plate-coated IGF-1R, antibody titrated against 200 ng/mL IGF-2 biotin
Experimental: as §1, with “of 200” for “of 20”, “ng/mL of IGF-2” for “ng/mL IGF-1”

T2 sequence (P08069 31-932 limits assumed): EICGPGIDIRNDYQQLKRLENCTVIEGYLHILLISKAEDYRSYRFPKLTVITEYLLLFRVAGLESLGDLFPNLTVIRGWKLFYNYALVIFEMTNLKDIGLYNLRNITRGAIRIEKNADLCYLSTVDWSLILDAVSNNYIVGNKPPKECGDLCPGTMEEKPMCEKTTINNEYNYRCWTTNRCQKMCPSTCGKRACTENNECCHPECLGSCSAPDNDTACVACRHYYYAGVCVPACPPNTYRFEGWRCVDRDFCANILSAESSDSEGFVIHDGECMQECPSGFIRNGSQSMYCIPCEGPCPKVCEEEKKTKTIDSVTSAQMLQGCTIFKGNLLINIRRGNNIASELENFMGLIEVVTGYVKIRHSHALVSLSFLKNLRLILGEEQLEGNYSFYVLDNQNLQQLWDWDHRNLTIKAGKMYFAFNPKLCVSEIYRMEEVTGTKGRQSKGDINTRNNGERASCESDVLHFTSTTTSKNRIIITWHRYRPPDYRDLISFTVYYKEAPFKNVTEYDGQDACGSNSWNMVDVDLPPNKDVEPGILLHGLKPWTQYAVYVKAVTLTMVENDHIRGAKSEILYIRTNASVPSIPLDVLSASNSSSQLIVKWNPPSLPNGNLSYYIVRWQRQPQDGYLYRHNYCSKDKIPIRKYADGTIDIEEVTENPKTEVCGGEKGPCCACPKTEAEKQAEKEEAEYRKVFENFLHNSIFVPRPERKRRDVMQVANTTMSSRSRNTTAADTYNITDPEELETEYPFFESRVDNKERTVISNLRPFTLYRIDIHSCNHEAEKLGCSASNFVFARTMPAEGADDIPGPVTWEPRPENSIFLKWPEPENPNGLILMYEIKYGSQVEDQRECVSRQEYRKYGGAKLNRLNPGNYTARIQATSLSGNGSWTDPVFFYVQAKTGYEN
T1 sequence (P08069 31-1367 limits assumed): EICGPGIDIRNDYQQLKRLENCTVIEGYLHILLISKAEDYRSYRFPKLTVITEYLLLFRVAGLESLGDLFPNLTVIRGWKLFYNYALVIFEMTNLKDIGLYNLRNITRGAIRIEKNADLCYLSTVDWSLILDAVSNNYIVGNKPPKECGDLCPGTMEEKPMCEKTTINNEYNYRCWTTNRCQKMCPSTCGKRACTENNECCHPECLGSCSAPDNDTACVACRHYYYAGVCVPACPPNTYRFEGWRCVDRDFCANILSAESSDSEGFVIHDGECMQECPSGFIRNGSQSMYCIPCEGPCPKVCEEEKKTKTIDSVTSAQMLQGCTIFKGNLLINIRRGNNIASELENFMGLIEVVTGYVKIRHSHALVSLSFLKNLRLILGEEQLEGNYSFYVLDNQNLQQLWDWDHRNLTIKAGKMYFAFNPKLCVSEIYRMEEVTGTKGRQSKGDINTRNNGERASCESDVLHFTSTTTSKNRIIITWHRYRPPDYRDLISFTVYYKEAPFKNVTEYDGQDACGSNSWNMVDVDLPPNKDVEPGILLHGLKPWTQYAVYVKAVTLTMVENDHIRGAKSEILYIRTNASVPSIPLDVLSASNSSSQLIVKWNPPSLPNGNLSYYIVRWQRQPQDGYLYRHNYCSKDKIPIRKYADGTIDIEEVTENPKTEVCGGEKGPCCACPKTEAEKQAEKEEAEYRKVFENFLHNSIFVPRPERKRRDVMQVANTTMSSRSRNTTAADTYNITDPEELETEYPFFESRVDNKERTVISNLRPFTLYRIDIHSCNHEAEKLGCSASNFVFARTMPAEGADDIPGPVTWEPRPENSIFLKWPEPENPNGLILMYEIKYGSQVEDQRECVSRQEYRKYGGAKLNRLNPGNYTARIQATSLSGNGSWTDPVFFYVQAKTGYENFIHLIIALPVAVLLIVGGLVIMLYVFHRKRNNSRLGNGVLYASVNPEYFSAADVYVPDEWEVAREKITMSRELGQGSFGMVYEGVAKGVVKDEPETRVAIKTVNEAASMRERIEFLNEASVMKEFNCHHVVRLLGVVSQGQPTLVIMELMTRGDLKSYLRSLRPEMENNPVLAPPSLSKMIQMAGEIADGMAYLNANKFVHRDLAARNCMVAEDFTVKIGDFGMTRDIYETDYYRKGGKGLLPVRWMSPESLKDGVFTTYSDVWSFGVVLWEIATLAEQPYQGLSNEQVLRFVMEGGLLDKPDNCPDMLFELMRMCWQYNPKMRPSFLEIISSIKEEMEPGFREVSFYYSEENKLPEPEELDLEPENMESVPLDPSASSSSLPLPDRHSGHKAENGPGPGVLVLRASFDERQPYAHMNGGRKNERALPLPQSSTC

Inhibition of Phosphorylation IC50 (IGF-1R on NCI-H322 cells [1]) [ng/mL]	IC50 of inhibition of IGF-1R phosphorylation (IGF-1R on NCI-H322 cells [2]) [ng/mL]	IC50 [3] [µg/mL]	IC50 [4] [µg/mL]	Binder
4.9	–	0.388	0.161	D03 antibody (antibody, V domains shown, Whole antibody; also called clone D03) VH: QVELVESGGGVVQPGRSQRLSCAASGFTFSSHGMHWVRQAPGKGLEWVAYIWFDGSSTYYADSVRGRFTISRDNSKNTLYLQMNSLRAEDTAVYFCARELGRRYFDLWGRGTLVSVSS VL: EIVLTQSPATLSLSPGERATLSCRASQSVSSALAWYQQKPGQAPRLLIYDASKRATGIPARFSGSGSGTDFTLTISSLEPEDFAVYYCQQRSKYPPWTFGQGTKVESK
21.1	–	0.452	0.157	H11 antibody (antibody, V domains shown, Whole antibody) VH: QVELVESGGGVVQPGRSQRLSCAASGFTFSSYGMHWVRQAPGKGLEWVATIWHDGSSTYYADSVRGRFTISRDNSKNTLYLQMNSLRAEDTAVYFCARELGRRYFDLWGRGTLVSVSS VL: EIVLTQSPATLSLSPGERATLSCRASQSVSSALAWYQQKPGQAPRLLIYDASKRATGIPARFSGSGSGTDFTLTISSLEPEDFAVYYCQQRGKYPPWTFGQGTKVESK

The remaining lines, values behind:

Binder	Inhibition of Phosphorylation IC50 (IGF-1R on NCI-H322 cells [1]) [ng/mL]	IC50 of inhibition of IGF-1R phosphorylation (IGF-1R on NCI-H322 cells [2]) [ng/mL]	IC50 [3] [µg/mL]	IC50 [4] [µg/mL]
Teprotumumab reference antibody (antibody, V domains shown) VH: QVELVESGGGVVQPGRSQRLSCAASGFTFSSYGMHWVRQAPGKGLEWVAIIWFDGSSTYYADSVRGRFTISRDNSKNTLYLQMNSLRAEDTAVYFCARELGRRYFDLWGRGTLVSVSS VL: EIVLTQSPATLSLSPGERATLSCRASQSVSSYLAWYQQKPGQAPRLLIYDASKRATGIPARFSGSGSGTDFTLTISSLEPEDFAVYYCQQRSKWPPWTFGQGTKVESK	10.6	397	–	–
D03-YTE (antibody, V domains shown) VH: QVELVESGGGVVQPGRSQRLSCAASGFTFSSHGMHWVRQAPGKGLEWVAYIWFDGSSTYYADSVRGRFTISRDNSKNTLYLQMNSLRAEDTAVYFCARELGRRYFDLWGRGTLVSVSS VL: EIVLTQSPATLSLSPGERATLSCRASQSVSSALAWYQQKPGQAPRLLIYDASKRATGIPARFSGSGSGTDFTLTISSLEPEDFAVYYCQQRSKYPPWTFGQGTKVESK	–	20.5	–	–
E01 antibody (antibody, V domains shown, Whole antibody) VH: QVELVESGGGVVQPGRSQRLSCAASGFTFSSYGMHWVRQAPGKGLEWVAIIWFDGSSTYYADSVRGRFTISRDNSKNTLYLQMNSLRAEDTAVYFCARELGRRYFDLWGRGTLVSVSS VL: EIVLTQSPATLSLSPGERATLSCRASQSVSSYLAWYQQKPGQAPRLLIYDASKRATGIPARFSGSGSGTDFTLTISSLEPEDFAVYYCQQRSKYPPWTFGQGTKVESK	6.4	–	0.388	0.141
